Measured values published in patent US20240261333A1 (published 2024).

Columns and labels:
Test in all cases: co-IP, anti-FLAG, lysate of cells with N-FLAG B3GNT2; mass spectrometry
PRRC2A = target: T1, PRRC2A (human, UniProt P48634 1-2157)
T1 construct: also called NP_004629.3 (+1)

FUBP3 = target: T2, FUBP3 (human, UniProt Q96I24 2-572)
T2 construct: also called NP_003925.1 (+2)
T2 sequence (looked up): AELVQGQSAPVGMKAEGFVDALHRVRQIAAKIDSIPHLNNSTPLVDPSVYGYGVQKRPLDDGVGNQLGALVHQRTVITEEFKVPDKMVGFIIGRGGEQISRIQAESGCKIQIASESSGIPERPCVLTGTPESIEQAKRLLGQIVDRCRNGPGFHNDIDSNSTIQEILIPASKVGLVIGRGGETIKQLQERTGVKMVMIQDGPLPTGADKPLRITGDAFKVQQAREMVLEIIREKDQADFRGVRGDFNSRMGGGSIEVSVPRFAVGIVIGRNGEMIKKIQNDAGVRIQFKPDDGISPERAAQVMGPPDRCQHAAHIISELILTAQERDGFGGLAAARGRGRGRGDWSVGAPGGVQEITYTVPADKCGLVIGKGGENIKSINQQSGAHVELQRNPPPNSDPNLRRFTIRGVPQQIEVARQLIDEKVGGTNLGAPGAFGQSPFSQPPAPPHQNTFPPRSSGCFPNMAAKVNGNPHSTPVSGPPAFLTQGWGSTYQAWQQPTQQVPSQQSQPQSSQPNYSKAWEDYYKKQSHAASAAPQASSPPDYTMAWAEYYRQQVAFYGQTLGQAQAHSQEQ

PUM1 = target: T3, PUM1 (human, UniProt Q14671-3 2-1188, limits assumed)
T3 construct: also called NP_00108494.1 (+1)
T3 sequence (looked up): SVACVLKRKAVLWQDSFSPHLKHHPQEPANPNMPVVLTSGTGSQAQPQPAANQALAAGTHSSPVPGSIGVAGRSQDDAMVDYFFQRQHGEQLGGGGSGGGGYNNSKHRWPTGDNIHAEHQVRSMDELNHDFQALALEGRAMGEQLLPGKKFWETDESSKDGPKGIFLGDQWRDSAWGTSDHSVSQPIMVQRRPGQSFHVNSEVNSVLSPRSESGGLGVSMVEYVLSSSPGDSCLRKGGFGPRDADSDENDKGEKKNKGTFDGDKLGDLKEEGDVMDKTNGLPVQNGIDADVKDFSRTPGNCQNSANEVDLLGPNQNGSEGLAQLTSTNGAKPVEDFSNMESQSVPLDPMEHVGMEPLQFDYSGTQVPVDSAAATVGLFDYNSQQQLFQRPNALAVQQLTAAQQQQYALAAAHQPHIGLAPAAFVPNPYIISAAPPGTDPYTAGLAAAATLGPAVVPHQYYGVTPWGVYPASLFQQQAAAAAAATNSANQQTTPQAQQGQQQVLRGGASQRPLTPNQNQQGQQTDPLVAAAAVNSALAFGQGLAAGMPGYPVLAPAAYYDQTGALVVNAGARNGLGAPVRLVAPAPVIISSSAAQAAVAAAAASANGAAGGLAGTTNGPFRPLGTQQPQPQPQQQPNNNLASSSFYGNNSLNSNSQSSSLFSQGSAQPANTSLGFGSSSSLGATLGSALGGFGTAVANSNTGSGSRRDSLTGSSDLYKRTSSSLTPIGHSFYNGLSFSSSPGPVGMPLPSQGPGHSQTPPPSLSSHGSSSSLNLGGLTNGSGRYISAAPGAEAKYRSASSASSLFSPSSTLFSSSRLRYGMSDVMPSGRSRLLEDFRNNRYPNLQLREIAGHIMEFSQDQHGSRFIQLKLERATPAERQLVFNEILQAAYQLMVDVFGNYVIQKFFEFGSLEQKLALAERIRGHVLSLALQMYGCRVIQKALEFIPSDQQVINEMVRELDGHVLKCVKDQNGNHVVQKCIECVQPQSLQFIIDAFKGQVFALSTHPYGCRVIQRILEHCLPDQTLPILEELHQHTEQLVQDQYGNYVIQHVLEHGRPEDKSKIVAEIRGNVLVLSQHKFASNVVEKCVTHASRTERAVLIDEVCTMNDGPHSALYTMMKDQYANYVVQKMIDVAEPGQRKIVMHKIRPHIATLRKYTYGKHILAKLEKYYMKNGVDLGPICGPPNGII

MYH11 = target: T4, MYH11 (human, UniProt P35749-3 1-1945, limits assumed)
T4 construct: also called NP_001035202.1 (+4)

HNRNPK = target: T5, HNRNPK (human, UniProt P61978-3 1-440, limits assumed)
T5 construct: also called NP_001305115.1 (+1)
T5 sequence (P61978 other isoform, or with tags, fused parts or gaps limits assumed): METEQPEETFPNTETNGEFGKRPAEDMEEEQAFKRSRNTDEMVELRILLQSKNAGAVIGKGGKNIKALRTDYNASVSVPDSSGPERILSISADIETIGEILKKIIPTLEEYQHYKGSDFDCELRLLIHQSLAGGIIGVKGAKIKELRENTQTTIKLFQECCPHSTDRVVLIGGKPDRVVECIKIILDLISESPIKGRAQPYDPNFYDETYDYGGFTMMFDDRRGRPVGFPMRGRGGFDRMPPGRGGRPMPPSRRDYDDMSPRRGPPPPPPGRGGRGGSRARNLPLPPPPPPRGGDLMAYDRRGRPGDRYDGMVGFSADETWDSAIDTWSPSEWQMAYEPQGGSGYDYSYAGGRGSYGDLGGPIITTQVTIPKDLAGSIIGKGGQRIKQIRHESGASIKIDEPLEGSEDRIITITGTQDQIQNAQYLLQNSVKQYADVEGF

T1 sequence (P48634 whole entry): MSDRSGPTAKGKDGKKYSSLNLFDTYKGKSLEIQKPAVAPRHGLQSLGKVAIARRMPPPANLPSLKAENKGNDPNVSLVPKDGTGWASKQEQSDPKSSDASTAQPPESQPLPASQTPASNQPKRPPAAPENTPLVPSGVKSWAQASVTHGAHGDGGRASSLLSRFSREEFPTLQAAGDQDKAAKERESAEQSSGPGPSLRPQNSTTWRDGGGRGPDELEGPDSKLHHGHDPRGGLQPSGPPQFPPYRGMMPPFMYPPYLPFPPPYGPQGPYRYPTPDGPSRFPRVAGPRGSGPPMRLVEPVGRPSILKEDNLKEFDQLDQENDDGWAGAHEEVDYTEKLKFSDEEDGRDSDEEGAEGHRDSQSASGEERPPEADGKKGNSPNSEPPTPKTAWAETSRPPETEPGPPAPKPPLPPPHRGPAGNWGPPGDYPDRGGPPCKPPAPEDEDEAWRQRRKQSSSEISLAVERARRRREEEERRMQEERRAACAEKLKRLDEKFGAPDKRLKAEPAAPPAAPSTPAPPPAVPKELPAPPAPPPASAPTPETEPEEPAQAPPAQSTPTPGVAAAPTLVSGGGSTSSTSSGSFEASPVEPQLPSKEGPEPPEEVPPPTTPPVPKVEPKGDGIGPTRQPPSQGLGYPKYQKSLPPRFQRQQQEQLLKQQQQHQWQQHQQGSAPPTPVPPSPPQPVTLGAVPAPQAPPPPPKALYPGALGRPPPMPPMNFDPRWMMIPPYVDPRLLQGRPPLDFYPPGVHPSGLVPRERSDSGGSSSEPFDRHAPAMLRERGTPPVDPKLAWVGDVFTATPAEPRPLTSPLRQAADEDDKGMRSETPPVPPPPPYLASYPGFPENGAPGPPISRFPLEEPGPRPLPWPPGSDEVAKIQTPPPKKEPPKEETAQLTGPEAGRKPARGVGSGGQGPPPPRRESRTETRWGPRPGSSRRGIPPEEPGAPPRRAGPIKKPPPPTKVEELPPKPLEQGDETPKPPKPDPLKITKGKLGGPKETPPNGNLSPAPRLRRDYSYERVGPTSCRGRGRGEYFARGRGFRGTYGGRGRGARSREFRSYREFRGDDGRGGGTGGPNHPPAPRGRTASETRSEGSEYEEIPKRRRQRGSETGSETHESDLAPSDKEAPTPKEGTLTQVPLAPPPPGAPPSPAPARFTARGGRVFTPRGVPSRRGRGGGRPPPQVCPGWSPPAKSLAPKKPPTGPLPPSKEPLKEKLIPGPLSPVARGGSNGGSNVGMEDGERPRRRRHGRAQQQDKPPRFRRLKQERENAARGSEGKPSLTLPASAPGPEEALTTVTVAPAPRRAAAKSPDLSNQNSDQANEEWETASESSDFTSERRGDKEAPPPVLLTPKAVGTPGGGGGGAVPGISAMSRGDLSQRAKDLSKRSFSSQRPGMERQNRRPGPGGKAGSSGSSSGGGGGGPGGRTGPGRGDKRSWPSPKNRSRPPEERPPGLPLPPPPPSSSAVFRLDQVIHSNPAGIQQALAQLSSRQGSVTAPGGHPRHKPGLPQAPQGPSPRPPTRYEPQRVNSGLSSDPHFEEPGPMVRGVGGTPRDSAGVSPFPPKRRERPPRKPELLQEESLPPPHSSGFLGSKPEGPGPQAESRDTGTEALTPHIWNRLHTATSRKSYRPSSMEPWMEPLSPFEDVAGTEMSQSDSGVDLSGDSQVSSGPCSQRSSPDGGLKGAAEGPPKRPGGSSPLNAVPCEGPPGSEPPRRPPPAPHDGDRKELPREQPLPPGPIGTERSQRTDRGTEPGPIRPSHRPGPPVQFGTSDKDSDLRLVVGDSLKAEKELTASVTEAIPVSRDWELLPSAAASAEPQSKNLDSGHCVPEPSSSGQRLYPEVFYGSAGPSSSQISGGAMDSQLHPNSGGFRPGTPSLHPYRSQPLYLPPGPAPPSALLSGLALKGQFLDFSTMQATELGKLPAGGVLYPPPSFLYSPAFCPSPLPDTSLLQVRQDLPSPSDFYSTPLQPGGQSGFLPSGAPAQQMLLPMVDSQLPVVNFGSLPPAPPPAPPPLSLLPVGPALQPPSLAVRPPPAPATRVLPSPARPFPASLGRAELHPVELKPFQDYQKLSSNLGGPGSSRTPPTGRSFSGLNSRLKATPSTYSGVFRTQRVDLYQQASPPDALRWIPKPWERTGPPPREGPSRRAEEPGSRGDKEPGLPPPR
T4 sequence (P35749 other isoform, or with tags, fused parts or gaps limits assumed): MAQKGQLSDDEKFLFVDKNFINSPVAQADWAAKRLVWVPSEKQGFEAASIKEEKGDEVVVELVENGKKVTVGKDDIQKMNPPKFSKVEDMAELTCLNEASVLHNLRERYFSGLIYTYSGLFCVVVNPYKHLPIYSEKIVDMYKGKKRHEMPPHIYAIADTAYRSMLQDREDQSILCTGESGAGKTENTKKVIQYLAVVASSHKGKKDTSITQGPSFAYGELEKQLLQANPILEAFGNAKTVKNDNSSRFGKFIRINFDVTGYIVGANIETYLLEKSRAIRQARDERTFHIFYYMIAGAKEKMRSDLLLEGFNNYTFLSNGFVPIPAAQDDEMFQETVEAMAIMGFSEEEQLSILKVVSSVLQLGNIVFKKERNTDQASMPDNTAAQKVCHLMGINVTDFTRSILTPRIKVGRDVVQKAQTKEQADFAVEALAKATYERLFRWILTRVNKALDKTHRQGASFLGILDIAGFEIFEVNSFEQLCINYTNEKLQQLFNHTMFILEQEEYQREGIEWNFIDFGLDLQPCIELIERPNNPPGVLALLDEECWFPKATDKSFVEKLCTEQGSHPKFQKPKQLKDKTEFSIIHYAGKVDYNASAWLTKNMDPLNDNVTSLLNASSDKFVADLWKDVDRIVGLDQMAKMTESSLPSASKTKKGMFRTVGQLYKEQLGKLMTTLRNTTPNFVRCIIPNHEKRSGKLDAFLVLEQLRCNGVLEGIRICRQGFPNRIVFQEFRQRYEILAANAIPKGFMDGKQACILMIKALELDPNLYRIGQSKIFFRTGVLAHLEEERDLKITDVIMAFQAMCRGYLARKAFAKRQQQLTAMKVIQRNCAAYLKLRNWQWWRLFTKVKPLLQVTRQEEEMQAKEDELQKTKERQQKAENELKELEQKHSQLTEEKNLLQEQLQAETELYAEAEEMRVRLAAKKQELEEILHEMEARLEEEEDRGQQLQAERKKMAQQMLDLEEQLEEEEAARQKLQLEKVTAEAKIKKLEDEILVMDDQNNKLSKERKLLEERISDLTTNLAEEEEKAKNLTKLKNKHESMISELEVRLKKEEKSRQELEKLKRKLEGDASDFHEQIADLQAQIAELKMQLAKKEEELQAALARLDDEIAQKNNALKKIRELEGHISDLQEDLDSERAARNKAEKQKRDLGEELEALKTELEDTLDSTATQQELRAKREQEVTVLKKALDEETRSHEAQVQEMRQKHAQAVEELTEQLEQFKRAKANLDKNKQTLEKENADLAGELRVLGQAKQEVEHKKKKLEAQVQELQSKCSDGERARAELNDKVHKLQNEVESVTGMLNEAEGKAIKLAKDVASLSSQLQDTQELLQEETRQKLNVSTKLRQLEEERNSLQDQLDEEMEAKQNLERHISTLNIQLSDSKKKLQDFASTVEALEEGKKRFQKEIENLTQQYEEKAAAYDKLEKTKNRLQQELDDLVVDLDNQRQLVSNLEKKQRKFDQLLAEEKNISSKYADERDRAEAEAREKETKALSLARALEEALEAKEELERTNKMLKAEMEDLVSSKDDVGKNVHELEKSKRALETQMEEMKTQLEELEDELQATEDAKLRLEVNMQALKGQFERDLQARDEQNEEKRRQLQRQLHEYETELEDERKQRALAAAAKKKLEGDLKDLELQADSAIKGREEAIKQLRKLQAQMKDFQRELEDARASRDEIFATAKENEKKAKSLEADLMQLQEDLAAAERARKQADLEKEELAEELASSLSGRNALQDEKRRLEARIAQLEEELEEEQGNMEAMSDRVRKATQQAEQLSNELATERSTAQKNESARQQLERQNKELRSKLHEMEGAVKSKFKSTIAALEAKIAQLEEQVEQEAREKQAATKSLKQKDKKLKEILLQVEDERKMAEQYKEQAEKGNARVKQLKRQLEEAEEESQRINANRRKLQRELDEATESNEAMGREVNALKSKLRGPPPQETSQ

B1: N-terminal FLAG tagged B3GNT2 (enzyme, human, UniProt Q9NY97 1-397, looked up)
chain: MSVGRRRIKLLGILMMANVFIYFIMEVSKSSSQEKNGKGEVIIPKEKFWKISTPPEAYWNREQEKLNRQYNPILSMLTNQTGEAGRLSNISHLNYCEPDLRVTSVVTGFNNLPDRFKDFLLYLRCRNYSLLIDQPDKCAKKPFLLLAIKSLTPHFARRQAIRESWGQESNAGNQTVVRVFLLGQTPPEDNHPDLSDMLKFESEKHQDILMWNYRDTFFNLSLKEVLFLRWVSTSCPDTEFVFKGDDDVFVNTHHILNYLNSLSKTKAKDLFIGDVIHNAGPHRDKKLKYYIPEVVYSGLYPPYAGGGGFLYSGHLALRLYHITDQVHLYPIDDVYTGMCLQKLGLVPEKHKGFRTFDIEEKNKNNICSYVDLMLVHSRKPQEMIDIWSQLQSAHLKC
notes: Overexpressed in cells and pulled down from the lysate with mouse anti-FLAG antibody; also called N-FLAG B3GNT2; N-term FLAG; not shown: N-terminal FLAG tag
PRRC2A
  co-IP mass spectrometry count: 2
FUBP3
  co-IP mass spectrometry count: 8
PUM1
  co-IP mass spectrometry count: 0
MYH11
  co-IP mass spectrometry count: 2
HNRNPK
  co-IP mass spectrometry count: 9
